For data set [1] the following is noted: in vivo; cited from earlier work.
The next data set relates to subcutaneous tumors. To be noted: with adenovirus; cited from earlier work.
Data set [2] concerns U87ΔEGFR human glioma spheroids. Description: oHSV spread in organotypic glioma model in presence/absence of Chase ABC. The data set is classed as cell-based. To be noted: 10^4 pfus of rQNestin34.5, presence vs absence of purified Chase ABC, n=3/group. As to the method: Briefly U87delta EGFR glioma cell line spheroids on Organotypic brain slice cultures were treated with or without purified Chase and then infected with OV. […] Gli36ΔEGFR mice were inoculated with 1×10^6 viral particles on six days (shown by arrows), and percent survival (FIG. 15A) and tumor volume were followed over the course of the study. U87ΔEGFR mice were also inoculated with 1×10^6 viral particles on six days (shown by arrows), and percent survival (FIG. 15B) and tumor volume were followed over the course of the study. U87ΔEGFR mice were also inoculated with 3×10^5 viral particles once ten days after cell implantation (shown by arrow), and percent survival (FIG. 15C) was followed over the course of the study.
As a preliminary result, the effect of Chase ABC treatment on spread by the rQNestin34.5 oHSV was tested in an organotypic glioma model. Briefly, U87ΔEGFR human glioma spheroids (made by the hanging drop method), grown on 300-μm organotypic brain slices from 5-7-day-old mice, were infected with 10^4 pfus of rQNestin34.5, in the presence/absence of Chase ABC. Spread of oHSV in the spheres was visualized by fluorescent imaging of oHSV encoded GFP in infected cells (n=3/group).

The subject of another data set is glioma cells. In words: Effect of Chase ABC treatment of glioma cells in vitro on oHSV infection/replication. The data set is classed as cell-based. The text has this: The tumor's extracellular matrix (ECM) can pose a significant barrier for efficient viral spread, thus limiting virotherapy efficacy. Chondroitin sulfate proteoglycans (CSPG) are one of the major components of glioma ECM. Choindroitinase ABC 1 (Chase ABC) is a bacterial enzyme that can depolymerize this ECM scaffold. Chase ABC mediated digestion of glioma CSPG can enhance oHSV dissemination and efficacy. […] This study examines the mechanism and impact of Chase ABC on oncolysis. Reduced virus replication can contribute to limited oncolytic efficacy of oHSV. Several innovative approaches are currently under investigation including transcriptional retargeting of viruses to drive virulence under the control of tumor-specific promoters. rQNestin34.5 is an oHSV that expresses viral ICP34.5 regulated by glioma-specific nestin promoter in an ICP34.5 deleted viral backbone. […] An oHSV expressing the humanized sequence of Chase ABC within the context of rQNestin34.5 can be used. […] The anti-tumor efficacy of the Chase ABC-expressing oHSV in vitro and in vivo, in glioma can be tested. The impact of the Chase ABC-expressing oHSV on tumor immune cell infiltration and responses can also be tested.

The conditions of data set [3]: cited from earlier work; for toxicity/hemorrhages/glial reactivity: repeated injections into brains and spinal cords.

Like-named read-outs stand apart in the source and are kept apart here.

As for collagenase, in data set [1], the intratumoral hemorrhages entry is given as “intratumoral hemorrhages occurred in many tumors”.

hyaluronidase: the “viral spread and therapeutic efficacy” value in the data set with subcutaneous tumors was “increased viral spread and therapeutic efficacy”.

B1: Chase ABC: bacterial enzyme, chondroitin-sulfate-ABC endolyase; bacterially produced and purified (Seikagaku Inc) (protein, UniProt P59807 25-1021, looked up)
Chondroitin sulfate ABC …: ATSNPAFDPKNLMQSEIYHFAQNNPLADFSSDKNSILTLSDKRSIMGNQSLLWKWKGGSSFTLHKKLIVPTDKEASKAWGRSSTPVFSFWLYNEKPIDGYLTIDFGEKLISTSEAQAGFKVKLDFTGWRAVGVSLNNDLENREMTLNATNTSSDGTQDSIGRSLGAKVDSIRFKAPSNVSQGEIYIDRIMFSVDDARYQWSDYQVKTRLSEPEIQFHNVKPQLPVTPENLAAIDLIRQRLINEFVGGEKETNLALEENISKLKSDFDALNIHTLANGGTQGRHLITDKQIIIYQPENLNSQDKQLFDNYVILGNYTTLMFNISRAYVLEKDPTQKAQLKQMYLLMTKHLLDQGFVKGSALVTTHHWGYSSRWWYISTLLMSDALKEANLQTQVYDSLLWYSREFKSSFDMKVSADSSDLDYFNTLSRQHLALLLLEPDDQKRINLVNTFSHYITGALTQVPPGGKDGLRPDGTAWRHEGNYPGYSFPAFKNASQLIYLLRDTPFSVGESGWNNLKKAMVSAWIYSNPEVGLPLAGRHPFNSPSLKSVAQGYYWLAMSAKSSPDKTLASIYLAISDKTQNESTAIFGETITPASLPQGFYAFNGGAFGIHRWQDKMVTLKAYNTNVWSSEIYNKDNRYGRYQSHGVAQIVSNGSQLSQGYQQEGWDWNRMQGATTIHLPLKDLDSPKPHTLMQRGERGFSGTSSLEGQYGMMAFDLIYPANLERFDPNFTAKKSVLAADNHLIFIGSNINSSDKNKNVETTLFQHAITPTLNTLWINGQKIENMPYQTTLQQGDWLIDSNGNGYLITQAEKVNVSRQHQVSAENKNRQPTEGNFSSAWIDHSTRPKDASYEYMVFLDATPEKMGEMAQKFRENNGLYQVLRKDKDVHIILDKLSNVTGYAFYQPASIEDKWIKKVNKPAIVMTHRQKDTLIVSAVTPDLNMTRQKAATPVTINVTINGKWQSADKNSEVKYQVSGDNTELTFTSYFGIPQEIKLSPLP
Regarding B1, the “oHSV spread in spheres (GFP imaging)” value was “increase in viral spread” in data set [2] and “increased oHSV spread within all three glioma spheroids” in data set [2] (listed as purified Chase ABC). In addition, in the data set with glioma cells, the oHSV infection/replication result is reported as “does not negatively affect oHSV infection/replication”. Also, the “loss of neurons, alterations of their structure, reactions of glial cells” value in data set [3] (intracerebral injections, immediately or after five months of treatment) is “did not reveal loss of neurons or alterations of their structure nor reactions of glial cells”. For the same molecule, the toxicity/hemorrhages/glial reactivity entry in data set [3] is “have not been associated with deleterious effects”; in data set [3] (listed as purified Chase ABC), “absence of toxicity/hemorrhages/glial reactivity”.
